Here are results for 167 variants from the RNAGym collection of RNA variant scans (doi:10.7554/elife.80360).

The labels stand for the following.
B1: CPEB3 Ribozyme (parent)
chain: GGGGGCCACAGCAGAAGCGUUCACGUCGCGGCCCCUGUCAGAUUCUGGUGAAUCUGCGAAUUCUGCUGU

In this series the parent is B1. The experiment in a line: self-cleavage, relative activity (ratio to wild type); higher = more cleavage; co-transcriptional.
Turning to G5U A10G, the self-cleavage is 0.543.
The figure for G5U A10C is 0.604; for G5U A10U it is 0.581; for G5C U55A it is 0.192.
G5C C57A: the self-cleavage is 0.0507.
For G5C C57G the value was 0.098; for G5U A42G, 0.343; for G5U A42C, 0.0793.
On to G5U A42U, for which the self-cleavage worked out at 0.118.
The figure for G5C A23C is 0.228; for G5C A23U it is 0.333; for G5C A23G it is 0.144.
For G5C C29A the value was 0.144; for G5C C29U, 0.133; for G5U A60G, 0.0935.
The figure for G5U A60U is 0.149.
As to G5U A60C, the self-cleavage came to 0.0763.
For G5A U67G the value was 0.957; for G5A U67C, 0.963.
The figure for G5C U69A is 0.307.
Take G5C U69G: the self-cleavage worked out at 0.437.
Consider G5C A40C, for which the self-cleavage was 0.213.
For the variant G5C A40G, the self-cleavage was 0.171.
Regarding G5C C66U, the self-cleavage came to 0.151.
The figure for G5C U67A is 0.338.
In the case of G5C U67G, the self-cleavage was found to be 0.355.
For G5C U67C the value was 0.254; for G5C G30U, 0.0983; for G5C G30A, 0.177.
For G5C G30C the value was 0.124; for G5C U44C, 0.179; for G5U A52U, 0.232.
For the variant G5U A52G, the self-cleavage was 0.266.
For G5C A51C the value was 0.152; for G5C A51G, 0.228.
The figure for G5C A51U is 0.269; for G5U C9A it is 0.716; for G5U C9U it is 0.877.
For G5U A51U the value was 0.236; for G5U A51G, 0.198; for G5U A51C, 0.187.
Turning to G5C G31U, the self-cleavage came out at 0.143.
The figure for G5C C18G is 0.12.
For G5C C18U the value was 0.148; for G5C C18A, 0.097; for G5C C6G, 0.0983.
The figure for G5U A59U is 0.125.
As for G5C G11U, the self-cleavage came to 0.108.
The figure for G5A U55C is 0.403; for G5A U55A it is 0.69; for G5C G47C it is 0.246.
The figure for G5C G47A is 0.201.
With G5C G47U, the self-cleavage was 0.289.
For G5C U36C the value was 0.244; for G5C U36A, 0.0886; for G5C U36G, 0.458.
Take G5C A59G: the self-cleavage turned out to be 0.229.
Regarding G5C G14U, the self-cleavage was 0.109.
For G5C C63U the value was 0.207.
The figure for G5C C63G is 0.109; for G5C C63A it is 0.119.
For G5A U53G the value was 0.335; for G5C G28C, 0.0894.
Regarding G5C G28U, the self-cleavage is 0.0856.
The figure for G5U C7A is 0.086.
G5U C7U: the self-cleavage is 0.0819.
Turning to G5U C7G, the self-cleavage is 0.0615.
For G5C U62A the value was 0.169; for G5C U64A, 0.246.
As to G5C U64C, the self-cleavage is 0.262.
The figure for G5C U64G is 0.105; for G5U A23G it is 0.253; for G5U A23C it is 0.211.
For G5U A23U the value was 0.402; for G5C C22G, 0.0735.
For G5C C22U the value was 0.0752.
Turning to G5C G17C, the self-cleavage came out at 0.0976.
As for G5C G17A, the self-cleavage came to 0.0588.
For G5A U64C the value was 0.676; for G5A U64A, 0.71.
For G5A U64G the value was 0.729.
G5U A13U: the self-cleavage came out at 0.139.
G5U A13G: the self-cleavage turned out to be 0.271.
For G5C G68U the value was 0.483; for G5C G68C, 0.317.
The figure for G5C G68A is 0.473; for G5C C45U it is 0.266.
Turning to G5C C45G, the self-cleavage is 0.178.
The figure for G5C G65A is 0.158.
The figure for G5C G65C is 0.106; for G5C G65U it is 0.0855.
For G5C G50A the value was 0.202; for G5C G50C, 0.182; for G5C G58U, 0.207.
Consider G5C A52C, for which the self-cleavage stood at 0.259.
For G5C A52G the value was 0.287; for G5C A52U, 0.123; for G5C G41C, 0.188.
For G5C G41A the value was 0.194; for G5C G41U, 0.186; for G5U A8G, 0.228.
The figure for G5U A8C is 0.346; for G5C U26G it is 0.228.
With G5C U26A, the self-cleavage amounted to 0.156.
Regarding G5C G25U, the self-cleavage came to 0.0626.
As for G5C G25C, the self-cleavage came out at 0.0981.
G5U C6U: the self-cleavage is 0.111.
As to G5C U43G, the self-cleavage is 0.219.
For G5C U43C the value was 0.173; for G5C C33A, 0.302; for G5C C33G, 0.227.
The figure for G5C G56A is 0.158; for G5U C18A it is 0.0315; for G5U C18G it is 0.0898.
The figure for G5C C7G is 0.293.
For G5C C7A, the self-cleavage amounted to 0.684.
The figure for G5C C12A is 0.141; for G5C C9A it is 0.386; for G5C C9U it is 0.412.
For G5C C9G the value was 0.487; for G5C U61C, 0.13; for G5C U61G, 0.153.
For G5C U61A the value was 0.193; for G5C U46C, 0.267.
For the variant G5C U46A, the self-cleavage amounted to 0.265.
The figure for G5A U62C is 0.423; for G5C C39U it is 0.184; for G5C C39A it is 0.134.
The figure for G5C C39G is 0.199; for G5C A42C it is 0.207.
For G5C A42U the value was 0.265.
On to G5C C27U, for which the self-cleavage came to 0.138.
Take G5C C35A: the self-cleavage was found to be 0.0866.
In the case of G5C U38G, the self-cleavage stood at 0.0921.
For the variant G5A U61C, the self-cleavage amounted to 0.299.
Regarding G5A U61A, the self-cleavage turned out to be 0.351.
For G5A U61G the value was 0.468; for G5C A8G, 0.242; for G5C A8U, 0.156.
For G5C A8C the value was 0.199; for G5C G19U, 0.121; for G5C G19A, 0.126.
For G5U C12U the value was 0.188.
As for G5C G37C, the self-cleavage worked out at 0.103.
The figure for G5C G37A is 0.119.
The figure for G5C G37U is 0.179; for G5C U21G it is 0.114.
For G5C U21A the value was 0.134; for G5C U21C, 0.149.
Take G5C U20G: the self-cleavage stood at 0.0813.
The figure for G5C C32G is 0.968; for G5C C54G it is 0.143.
The figure for G5C C54U is 0.219; for G5A U69C it is 1.05; for G5A U69G it is 1.03.
For G5A U69A the value was 0.994; for G5U A40C, 0.088; for G5C A10G, 0.289.
Consider G5C A10C, for which the self-cleavage amounted to 0.176.
For G5C G48A the value was 0.217.
As to G5C C34A, the self-cleavage amounted to 0.268.
For G5C C34U the value was 0.3; for G5C C34G, 0.22.
The figure for G5U A16U is 0.127.
Turning to G5U A16G, the self-cleavage came out at 0.14.
As for G5C C24U, the self-cleavage stood at 0.112.
In the case of G5C C24G, the self-cleavage came to 0.0631.
